Test results published in article PMC5928105.

Target: 20S proteasome core (mouse (endogenous in mouse retina)) (UniProt Q9Z2U0)
Assay: SEC; retinal lysates of WT or PA28α overexpressing mice on Superose-6 (Fig. 1) or Superose-6 Increase; 50 mM Tris-HCl pH 7.4, 40 mM NaCl, 5 mM MgCl2, 10% glycerol, 1 mM DTT, 1 mM ATP; 0.5 ml fractions western-blotted for β1 (20S), PSMD11 (19S) and PA28α (11S)

Sequence of UniProt Q9Z2U0 (Q9Z2U0 whole entry, looked up): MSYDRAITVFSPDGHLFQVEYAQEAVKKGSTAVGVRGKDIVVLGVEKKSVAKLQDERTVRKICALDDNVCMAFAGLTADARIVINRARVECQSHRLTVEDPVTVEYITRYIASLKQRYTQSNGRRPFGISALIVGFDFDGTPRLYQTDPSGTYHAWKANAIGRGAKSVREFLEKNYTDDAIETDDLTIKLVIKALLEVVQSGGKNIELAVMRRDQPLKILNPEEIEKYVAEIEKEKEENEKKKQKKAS

Row | Substance | percent of 20S cores co-eluting with 19S caps [%] | percent of PA28α co-eluting with 20S [%]
1 | 19S proteasome cap (from UniProt Q8BG32 1-422; Q8BJY1 1-504; Q99JI4 1-389; Q3TXS7 1-953) (complex) | 45 | –
2 | 11S caps formed upon PA28α overexpression (homomeric, PA28α subunits alone) (from UniProt P97371 1-249) (complex) | – | 2
